Data from US20110218157A1.

Tests used:
FcγIIa (R131 allele) = FcγIIa (R131 allele) (UniProt P12318); experiment: reverse ELISA: PAP-IC without peptide on FcγIIa (R131)-coated plate
FcγIIIa = FcγIIIa (UniProt P08637); experiment: reverse ELISA: PAP-IC without peptide on FcγIIIa-coated plate
FcγIIb = FcγIIb (UniProt P31994); experiment: reverse ELISA: PAP-IC without peptide on FcγIIb-coated plate
[1] = biological target: recombinant TNF-α (Sigma-Aldrich); experiment: reverse ELISA: PAP-IC without peptide on TNF-α-coated plate
recombinant TNF-α (Sigma-Aldrich), sequence (P01375 77-233): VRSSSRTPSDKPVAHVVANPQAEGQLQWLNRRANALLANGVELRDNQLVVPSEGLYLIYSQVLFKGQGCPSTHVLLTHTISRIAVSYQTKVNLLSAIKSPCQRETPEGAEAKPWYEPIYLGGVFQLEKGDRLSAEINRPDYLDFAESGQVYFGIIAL

Substance: peroxidase-rabbit anti-peroxidase IgG immune complex (PAP complex) (from UniProt P00433 31-338)
- OD405 (FcγIIa (R131 allele)): 1.6 OD405
- OD405 (FcγIIIa): 1.59 OD405
- OD405 (FcγIIb): 1.39 OD405
- OD405 [1]: 3.18 OD405
